Results: patent US20200048360A1 (TRACON PHARMACEUTICALS, published 2020)
Read-outs that look alike come from different tables or passages of the source.

T1: human CD105 (R&D Systems, Catalog No. 1097-EN) (human, UniProt P17813 26-586)
T1 construct: Captured on the plate by mouse anti-human CD105 (Southern Biotechnologies 9811-01); also called endoglin
T1 sequence (looked up): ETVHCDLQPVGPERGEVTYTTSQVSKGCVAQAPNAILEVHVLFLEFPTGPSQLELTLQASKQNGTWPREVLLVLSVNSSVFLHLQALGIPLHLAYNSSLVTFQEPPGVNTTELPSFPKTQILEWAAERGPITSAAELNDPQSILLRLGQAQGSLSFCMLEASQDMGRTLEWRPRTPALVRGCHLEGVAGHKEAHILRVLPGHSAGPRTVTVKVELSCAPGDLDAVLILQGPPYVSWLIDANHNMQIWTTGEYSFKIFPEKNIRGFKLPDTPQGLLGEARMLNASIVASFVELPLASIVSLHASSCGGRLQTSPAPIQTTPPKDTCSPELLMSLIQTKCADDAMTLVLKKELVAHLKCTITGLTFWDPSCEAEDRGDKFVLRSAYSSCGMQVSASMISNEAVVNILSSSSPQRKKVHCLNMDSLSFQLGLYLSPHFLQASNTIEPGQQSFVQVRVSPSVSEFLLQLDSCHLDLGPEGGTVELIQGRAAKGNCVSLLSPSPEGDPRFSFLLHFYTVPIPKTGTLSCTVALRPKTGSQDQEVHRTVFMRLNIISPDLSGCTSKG

T2: recombinant endoglin (UniProt P17813 26-586, limits assumed)
T2 sequence (looked up): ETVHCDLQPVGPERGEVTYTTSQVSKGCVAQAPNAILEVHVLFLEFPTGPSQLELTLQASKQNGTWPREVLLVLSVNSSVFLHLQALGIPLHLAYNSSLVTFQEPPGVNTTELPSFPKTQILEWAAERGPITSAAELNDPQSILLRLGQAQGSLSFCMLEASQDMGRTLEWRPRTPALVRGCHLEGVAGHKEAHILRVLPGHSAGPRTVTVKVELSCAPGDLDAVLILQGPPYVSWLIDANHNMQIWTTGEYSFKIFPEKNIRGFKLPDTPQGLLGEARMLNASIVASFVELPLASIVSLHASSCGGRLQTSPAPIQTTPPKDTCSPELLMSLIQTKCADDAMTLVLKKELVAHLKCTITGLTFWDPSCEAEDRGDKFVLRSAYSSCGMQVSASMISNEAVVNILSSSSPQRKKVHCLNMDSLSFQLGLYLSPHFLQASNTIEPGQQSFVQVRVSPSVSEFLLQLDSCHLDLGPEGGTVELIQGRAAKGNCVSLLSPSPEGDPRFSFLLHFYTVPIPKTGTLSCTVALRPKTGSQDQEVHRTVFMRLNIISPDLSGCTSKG


Experiments:
[1] = target: T1, human CD105 (R&D Systems, Catalog No. …); assay: ELISA with OD450 falling against test antibody concentration (competition format of paragraph 712: biotinylated chimeric anti-CD105 on captured human CD105; the legend says only 'binding assay data')
[2] = target: T1, human CD105 (R&D Systems, Catalog No. …); assay: as above; remark: listed apart in the source
[3] = target: T1, human CD105 (R&D Systems, Catalog No. …); assay: as above; remark: listed apart in the source
[4] = target: T1, human CD105 (R&D Systems, Catalog No. …); assay: as above; remark: listed apart in the source
[5] = target: T1, human CD105 (R&D Systems, Catalog No. …); assay: as above; remark: listed apart in the source
[6] = target: T1, human CD105 (R&D Systems, Catalog No. …); assay: as above; remark: listed apart in the source
recombinant endoglin = target: T2, recombinant endoglin; assay: BIAcore SPR, antibody captured on protein A chip, recombinant endoglin as analyte, 25 C
Experimental: Affinity of antibodies can be assessed using, for example, BIAcore analysis using standard protocols. Briefly, protein A is chemically coupled to a BIAcore CM5 chip, with the amount of protein A immobilized corresponding to ˜2000 R U. Subsequent steps are performed in a running buffer of 10 mM HEPES, 150 mM NaCl, 3 mM EDTA, 0.05% TWEEN, pH=7.4, at 25 degrees Celsius using a 10 Hz data collection rate. Anti-endoglin antibody (10 nM) is captured at a 10 μL/min flow rate by the immobilized protein A on the BIAcore chip: typically, capture times of 20, 40 and 80 seconds allow the capture of antibody densities corresponding to 130 RU, 330 RU and 570 RU, respectively. Start-up cycles are performed using running buffer at a flow rate of 40 μl/min, a contact time of 90 seconds and a dissociation time of 90 seconds. Sample cycles are performed using recombinant endoglin at concentrations ranging from 0 to 40 nM. Endoglin is passed over the BIAcore chip containing captured antibody at a flow rate of 40 μl/min with a contact time of 525 seconds and dissociation time of 2500 seconds. Eight sample cycles are typically performed at each antibody capture density Regeneration of the chip is accomplished using 10 mM glycine pH=1.7. Data analysis is performed using BIAcore T100 Evaluation Software v1.1 Signals generated using BIAcore chips with different captured antibody densities are compared and data generated in the absence of recombinant endoglin are used to adjust for the intraassay blank signal. For fitting of the data, the Rₘₐₓ is allowed to float to account for variation in capture levels of each antibody in each cycle. Data from each capture density is fitted simultaneously during analysis of each antibody. BIAcore data are presented in Table 2 for chimeric, humanized and humanized/deimmunized anti-endoglin antibodies, including kₐ (1/Ms), kd (1/s), KD (M) and […] (RU²).

[7] = target: T1, human CD105 (R&D Systems, Catalog No. …); assay: ELISA with OD450 falling against test antibody concentration (competition format of paragraph 712: biotinylated chimeric anti-CD105 on captured human CD105; the legend says only 'binding assay data'); remark: listed apart in the source
[8] = target: T1, human CD105 (R&D Systems, Catalog No. …); assay: as above; remark: listed apart in the source
[9] = target: T1, human CD105 (R&D Systems, Catalog No. …); assay: competition ELISA on captured human CD105; competitor biotinylated chimeric anti-CD105
Experimental: Antibodies were tested in a competition ELISA for binding to CD105 against biotinylated chimeric anti-CD105. Briefly, chimeric anti-CD105 was biotinylated using a micro-biotinylation kit (Sigma, Catalog No. BTAG-1KT) following the manufacturer's instructions. […] Binding of the biotinylated chimeric antibody was detected via streptavidin-HRP (Sigma, Catalog No. 55512) and TMB substrate (Sigma, Catalog No. T0440). OD450 nm values were measured on a Dynex MRX TCII plate reader. The results of the competition analysis are illustrated in FIGS. 7 and 8. […] To allow for comparisons within and between experiments, IC50 values of humanized or humanized/deimmunized variants were normalized against the reference antibody that was included on each plate to give a value for the fold difference. IC50 values are relative to chimeric anti-CD105 and are representative of three experiments. Summary ELISA data are presented in Table 1 and include antibody expression levels […]) as assayed in saturated static cultures.

Binder | IC50 (read off the curve) [1] | IC50 (read off the curve) [2] | IC50 (read off the curve) [3] | IC50 (read off the curve) [4] | IC50 (read off the curve) [5] | IC50 (read off the curve) [6] | Kd (recombinant endoglin) | koff (recombinant endoglin) | kon (recombinant endoglin) | IC50 (read off the curve) [7] | IC50 (read off the curve) [8] | Relative IC50 (fold of chimeric anti-endoglin antibody) [9]
chimeric anti-CD105 antibody TRC105 (antibody, V domains shown, Chimeric monoclonal antibody with the murine SN6j variable regions; also called chimeric anti-endoglin antibody; c-SN6j) VH: EVKLEESGGGLVQPGGSMKLSCAASGFTFSDAWMDWVRQSPEKGLEWVAEIRSKASNHATYYAESVKGRFTISRDDSKSSVYLQMNSLRAEDTGIYYCTRWRRFFDSWGQGTTLTVSS VL: QIVLSQSPAILSASPGEKVTMTCRASSSVSYMHWYQQKPGSSPKPWIYATSNLASGVPVRFSGSGSGTSYSLTISRVEAEDAATYYCQQWSSNPLTFGAGTKLELK | ~0.2 µg/mL | ~0.2 µg/mL | ~0.2 µg/mL | ~0.2 µg/mL | ~0.2 µg/mL | ~0.2 µg/mL | 0.6 nM | 3.28e-05 s⁻¹ | 54700 M⁻¹ s⁻¹ | ~0.2 µg/mL | ~0.2 µg/mL | 
VK2AAVH1A2 (antibody, V domains shown, IgG1 heavy chain, kappa light chain) VH: EVQLVESGGGLVKPGGSLRLSCAASGFTFSDAWMDWVRQAPGKGLEWVGEARSKASNHATYYAESVKGRFTISRDDSKNTLYLQMNSLKTEDTAVYYCTRWRRFFDSWGQGTLVTVSS VL: DIQLTQSPSSLSASVGDRATITCRASSSVSYMHWYQQKPGKAPKPWAYATSNLASGVPSRFSGSGSGTDYTLTISSLQPEDFATYYCQQWSSNPLTFGGGTKVEIK |  |  |  |  |  | ~0.2 µg/mL |  |  |  |  |  | 0.99 fold relative to chimeric
VK1AAVH1R (antibody, V domains shown, IgG1 heavy chain, kappa light chain) VH: EVQLVESGGGLVKPGGSLRLSCAASGFTFSDAWMDWVRQAPGKGLEWVGEIRSRASNHATYYAESVKGRFTISRDDSKNTLYLQMNSLKTEDTAVYYCTRWRRFFDSWGQGTLVTVSS VL: DIQMTQSPSSLSASVGDRATITCRASSSVSYMHWYQQKPGKAPKPWAYATSNLASGVPSRFSGSGSGTDYTLTISSLQPEDFATYYCQQWSSNPLTFGGGTKVEIK |  |  |  |  |  |  | 0.533 nM | 3.41e-05 s⁻¹ | 64000 M⁻¹ s⁻¹ | ~0.2 µg/mL |  | 1.05 fold relative to chimeric
VK1AAVH1A2 (antibody, V domains shown, IgG1 heavy chain, kappa light chain; also called humanized/deimmunized anti-endoglin antibody VK1AAVH1A2) VH: EVQLVESGGGLVKPGGSLRLSCAASGFTFSDAWMDWVRQAPGKGLEWVGEARSKASNHATYYAESVKGRFTISRDDSKNTLYLQMNSLKTEDTAVYYCTRWRRFFDSWGQGTLVTVSS VL: DIQMTQSPSSLSASVGDRATITCRASSSVSYMHWYQQKPGKAPKPWAYATSNLASGVPSRFSGSGSGTDYTLTISSLQPEDFATYYCQQWSSNPLTFGGGTKVEIK | ~0.2 µg/mL |  |  |  |  |  | 0.706 nM | 3.25e-05 s⁻¹ | 46000 M⁻¹ s⁻¹ |  |  | 1.12 fold relative to chimeric
VK1AAVH1Q (antibody, V domains shown, IgG1 heavy chain, kappa light chain) VH: EVQLVESGGGLVKPGGSLRLSCAASGFTFSDAWMDWVRQAPGKGLEWVGEIRSQASNHATYYAESVKGRFTISRDDSKNTLYLQMNSLKTEDTAVYYCTRWRRFFDSWGQGTLVTVSS VL: DIQMTQSPSSLSASVGDRATITCRASSSVSYMHWYQQKPGKAPKPWAYATSNLASGVPSRFSGSGSGTDYTLTISSLQPEDFATYYCQQWSSNPLTFGGGTKVEIK |  | ~0.2 µg/mL |  |  |  |  | 0.85 nM | 3.03e-05 s⁻¹ | 35600 M⁻¹ s⁻¹ |  |  | 1.3 fold relative to chimeric
